Target: recombinant cofilin (His-tagged fusion protein of human cofilin), P23528
Sequence (P23528 whole entry, the tested form may be a part): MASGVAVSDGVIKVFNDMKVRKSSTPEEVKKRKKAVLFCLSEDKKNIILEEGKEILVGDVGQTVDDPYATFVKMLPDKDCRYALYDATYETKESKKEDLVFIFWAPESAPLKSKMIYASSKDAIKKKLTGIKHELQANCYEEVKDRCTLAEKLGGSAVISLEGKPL

B1: LIM kinase 1 (protein)
chain: MRLTLLCCTWREERMGEEGSELPVCASCGQRIYDGQYLQALNADWHADCFRCCDCSASLSHQYYEKDGQLFCKKDYWARYGESCHGCSEQITKGLVMVAGELKYHPECFICLTCGTFIGDGDTYTLVEHSKLYCGHCYYQTVVTPVIEQILPDSPGSHLPHTVTLVSIPASSHGKRGLSVSIDPPHGPPGCGTEHSHTVRVQGVDPGCMSPDVKNSIHVGDRILEINGTPIRNVPLDEIDLLIQETSRLLQLTLEHDPHDTLGHGLGPETSPLSSPAYTPSGEAGSSARQKPVLRSCSIDRSPGAGSLGSPASQRKDLGRSESLRVVCRPHRIFRPSDLIHGEVLGKGCFGQAIKVTHRETGEVMVMKELIRFDEETQRTFLKEVKVMRCLEHPNVLKFIGVLYKDKRLNFITEYIKGGTLRGIIKSMDSQYPWSQRVSFAKDIASGMAYLHSMNIIHRDLNSHNCLVRENKNVVVADFGLARLMVDEKTQPEGLRSLKKPDRKKRYTVVGNPYWMAPEMINGRSYDEKVDVFSFGIVLCEIIGRVNADPDYLPRTMDFGLNVRGFLDRYCPPNCPPSFFPITVRCCDLDPEKRPSFVKLEHWLETLRMHLAGHLPLGPQLEQLDRGFWETYRRGESGLPAHPEVPD
  in vitro phosphorylation of recombinant cofilin (immune complex kinase assay, autoradiography): immunoprecipitated LIMK1 (FIG. 2, a and b) from PC3 cells was capable of phosphorylating recombinant cofilin (FIG. 2c)

From patent publication US20110251255
